{"source": "paper PMC11096400", "about": "(Scientific Reports, 2024)", "substrate": "N[C@@H](CCC(=O)O)C(=O)O", "assay": "purified protein", "conditions": "0.1-1.0 mM NADP, 50 mM Tris, pH 7.5, 293 K, 20.0 °C", "data": [{"protein": "glutamate dehydrogenase (GDH) (Thermococcus profundus) (protein) MVEIDPFEMAVKQLERAAQYMDISEEALEWLKKPMRIVEVSVPIEMDDGSVKVFTGFRVQHNWARGPTKGGIRWHPAETLSTVKALATWMTWKVAVVDLPYGGGKGGIIVNPKELSEREQERLARAYIRAVYDVIGPWTDIPAPDVYTNPKIMGWMMDEYETIMRRKGPAFGVITGKPLSIGGSLGRGTATAQGAIFTIREAAKALGIDLKGKKIAVQGYGNAGYYTAKLAKEQLGMTVVAVSDSRGGIYNPDGLDPDEVLKWKREHGSVKDFPGATNITNEELLELEVDVLAPAAIEEVITEKNADNIKAKIVAEVANGPVTPEADDILREKGILQIPDFLCNAGGVTVSYFEWVQNINGYYWTEEEVREKLDKKMTKAFWEVYNTHKDKNIHMRDAAYVVAVSRVYQAMKDRGWVKK", "values": [{"measurement": "Km", "value": "2380 ± 24", "unit": "µM"}, {"measurement": "kcat", "value": "2.78 ± 0.00", "unit": "s⁻¹"}]}]}
